Data published in publication PMC7566464.

Molecular target: oxidised human Prdx6 (Peroxiredoxin 6), peroxidatic cysteine in the sulfenic acid form (human) (UniProt P30041)
Experiment: SEC; Sephadex G-75, 20 mM Tris-HCl pH 7.0, 500 ul of 2 mg/ml protein, void volume by Blue dextran

stoichiometry N: 2
Substance: oxidised human Prdx6 (Peroxiredoxin 6), peroxidatic cysteine in the sulfenic acid form (from UniProt P30041 1-224) (enzyme)
